Target: T1, recombinant full-length human CHD8 (human, UniProt Q9HCK8 1-2581)
T1 construct: CHD8, human, full length; no cleavage of the tag is described; also called full-length CHD8; full-length Chd8; source: Expi293F, transiently transfected, purified (StrepTactin XT 4-Flow resin)
Test: SPR; Biacore T200; CHD8 amine-coupled to a C1 chip (1585 RU), BSA-coupled reference cell; BCL11A injected 2.62-5737.5 nM (1:3 series), 600 s association, 300 s dissociation; 25 °C, HBS-P+ (10 mM HEPES, 150 mM NaCl, 0.05% Tween 20, pH 7.4); steady-state fit of responses at 600 s
Conditions: both partners purified

T1 sequence (Q9HCK8 whole entry): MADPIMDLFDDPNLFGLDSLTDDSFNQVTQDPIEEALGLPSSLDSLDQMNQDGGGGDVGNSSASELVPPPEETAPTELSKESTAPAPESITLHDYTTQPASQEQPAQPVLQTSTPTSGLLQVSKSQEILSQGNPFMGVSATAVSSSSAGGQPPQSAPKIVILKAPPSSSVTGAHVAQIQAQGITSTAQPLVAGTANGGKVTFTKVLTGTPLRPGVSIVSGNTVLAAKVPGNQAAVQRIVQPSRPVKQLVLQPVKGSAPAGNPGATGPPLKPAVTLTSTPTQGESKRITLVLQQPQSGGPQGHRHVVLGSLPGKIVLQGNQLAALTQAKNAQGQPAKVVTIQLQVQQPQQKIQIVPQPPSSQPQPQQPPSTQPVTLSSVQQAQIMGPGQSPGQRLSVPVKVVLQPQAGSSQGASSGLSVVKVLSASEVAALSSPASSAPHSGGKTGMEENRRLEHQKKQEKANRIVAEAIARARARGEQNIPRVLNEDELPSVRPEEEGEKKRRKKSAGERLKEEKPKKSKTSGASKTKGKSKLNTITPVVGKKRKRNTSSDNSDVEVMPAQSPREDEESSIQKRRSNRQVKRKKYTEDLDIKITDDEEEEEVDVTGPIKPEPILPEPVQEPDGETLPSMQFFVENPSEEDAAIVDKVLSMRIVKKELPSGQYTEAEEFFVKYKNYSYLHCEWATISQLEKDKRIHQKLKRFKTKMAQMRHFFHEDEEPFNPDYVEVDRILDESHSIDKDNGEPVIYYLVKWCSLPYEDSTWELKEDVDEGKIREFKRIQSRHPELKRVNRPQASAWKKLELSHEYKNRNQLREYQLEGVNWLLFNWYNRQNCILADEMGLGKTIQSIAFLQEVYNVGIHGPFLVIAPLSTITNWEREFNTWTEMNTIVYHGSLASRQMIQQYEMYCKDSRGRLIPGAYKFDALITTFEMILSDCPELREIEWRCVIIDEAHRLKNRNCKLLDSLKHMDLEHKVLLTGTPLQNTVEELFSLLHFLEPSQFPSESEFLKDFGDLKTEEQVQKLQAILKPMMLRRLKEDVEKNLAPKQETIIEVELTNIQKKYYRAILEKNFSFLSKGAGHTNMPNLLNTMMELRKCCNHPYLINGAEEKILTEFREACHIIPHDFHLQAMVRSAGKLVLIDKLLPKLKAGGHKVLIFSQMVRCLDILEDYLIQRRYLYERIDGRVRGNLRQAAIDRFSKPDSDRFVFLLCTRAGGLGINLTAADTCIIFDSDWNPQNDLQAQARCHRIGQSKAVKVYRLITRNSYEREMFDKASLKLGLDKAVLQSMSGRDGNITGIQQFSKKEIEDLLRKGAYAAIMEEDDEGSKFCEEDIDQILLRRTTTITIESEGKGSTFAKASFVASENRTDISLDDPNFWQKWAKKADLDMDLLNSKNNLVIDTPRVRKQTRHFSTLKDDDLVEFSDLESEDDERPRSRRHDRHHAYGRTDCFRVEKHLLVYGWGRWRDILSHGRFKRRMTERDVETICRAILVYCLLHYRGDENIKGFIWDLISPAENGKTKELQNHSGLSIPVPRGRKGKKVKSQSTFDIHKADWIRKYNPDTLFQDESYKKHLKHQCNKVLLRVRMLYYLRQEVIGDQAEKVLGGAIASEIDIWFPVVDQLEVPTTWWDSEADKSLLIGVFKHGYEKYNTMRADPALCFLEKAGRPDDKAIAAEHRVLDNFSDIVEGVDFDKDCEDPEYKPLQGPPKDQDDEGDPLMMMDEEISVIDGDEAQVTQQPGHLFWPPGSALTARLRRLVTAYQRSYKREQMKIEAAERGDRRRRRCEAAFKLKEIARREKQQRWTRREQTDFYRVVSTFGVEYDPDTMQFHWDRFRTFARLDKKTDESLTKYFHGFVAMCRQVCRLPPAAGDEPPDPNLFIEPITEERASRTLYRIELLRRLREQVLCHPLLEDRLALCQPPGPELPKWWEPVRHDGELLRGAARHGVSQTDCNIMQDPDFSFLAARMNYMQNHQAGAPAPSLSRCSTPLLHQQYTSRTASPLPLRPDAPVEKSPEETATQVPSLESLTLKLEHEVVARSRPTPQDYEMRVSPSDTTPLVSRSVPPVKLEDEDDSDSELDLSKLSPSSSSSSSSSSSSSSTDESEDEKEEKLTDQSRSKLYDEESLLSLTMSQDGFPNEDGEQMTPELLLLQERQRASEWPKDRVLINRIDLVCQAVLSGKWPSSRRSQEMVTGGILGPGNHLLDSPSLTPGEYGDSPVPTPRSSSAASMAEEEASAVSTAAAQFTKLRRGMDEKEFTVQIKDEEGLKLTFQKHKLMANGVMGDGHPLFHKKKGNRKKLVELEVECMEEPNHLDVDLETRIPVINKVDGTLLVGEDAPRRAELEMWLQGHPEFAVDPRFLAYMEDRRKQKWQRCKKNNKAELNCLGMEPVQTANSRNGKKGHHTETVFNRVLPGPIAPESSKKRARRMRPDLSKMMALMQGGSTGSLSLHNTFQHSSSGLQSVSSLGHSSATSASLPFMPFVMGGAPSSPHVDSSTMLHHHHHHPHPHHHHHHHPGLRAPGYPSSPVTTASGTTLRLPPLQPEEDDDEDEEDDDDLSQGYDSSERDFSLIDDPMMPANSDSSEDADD

B1: recombinant full-length human BCL11A (natural protein, UniProt Q9H165 1-835, looked up)
chain: MSRRKQGKPQHLSKREFSPEPLEAILTDDEPDHGPLGAPEGDHDLLTCGQCQMNFPLGDILIFIEHKRKQCNGSLCLEKAVDKPPSPSPIEMKKASNPVEVGIQVTPEDDDCLSTSSRGICPKQEHIADKLLHWRGLSSPRSAHGALIPTPGMSAEYAPQGICKDEPSSYTCTTCKQPFTSAWFLLQHAQNTHGLRIYLESEHGSPLTPRVGIPSGLGAECPSQPPLHGIHIADNNPFNLLRIPGSVSREASGLAEGRFPPTPPLFSPPPRHHLDPHRIERLGAEEMALATHHPSAFDRVLRLNPMAMEPPAMDFSRRLRELAGNTSSPPLSPGRPSPMQRLLQPFQPGSKPPFLATPPLPPLQSAPPPSQPPVKSKSCEFCGKTFKFQSNLVVHRRSHTGEKPYKCNLCDHACTQASKLKRHMKTHMHKSSPMTVKSDDGLSTASSPEPGTSDLVGSASSALKSVVAKFKSENDPNLIPENGDEEEEEDDEEEEEEEEEEEEELTESERVDYGFGLSLEAARHHENSSRGAVVGVGDESRALPDVMQGMVLSSMQHFSEAFHQVLGEKHKRGHLAEAEGHRDTCDEDSVAGESDRIDDGTVNGRGCSPGESASGGLSKKLLLGSPSSLSPFSKRIKLEKEFDLPPAAMPNTENVYSQWLAGYAASRQLKDPFLSFGDSRQSPFASSSEHSSENGSLRFSTPPGELDGGISGRSGTGSGGSTPHISGPGPGRPSSKEGRRSDTCEYCGKVFKNCSNLTVHRRSHTGERPYKCELCNYACAQSSKLTRHMKTHGQVGKDVYKCEICKMPFSVYSTLEKHMKKWHSDRVLNNDIKTE
notes: BCL11A, human, full length; no cleavage of the tag is described; also called full-length BCL11A; source: Expi293F, transiently transfected, purified (StrepTactin XT 4-Flow resin)
With B1 as the binder, how does the Kd read?
Its Kd is 870 nM.

Reference: article PMC12170886, “CHD8 interacts with BCL11A to induce oncogenic transcription in triple negative breast cancer” (The EMBO Journal, 2025)
